According to PMC4052767 (Genes & Development, 2014):
Where a chain is given by its changes, count along the chain named. Numbers in names are those of the source.

T1: Yeast Hat2p (full length) with N-terminal 6xHis tag (yeast (Saccharomyces cerevisiae), UniProt P39984 1-401)
T1 sequence: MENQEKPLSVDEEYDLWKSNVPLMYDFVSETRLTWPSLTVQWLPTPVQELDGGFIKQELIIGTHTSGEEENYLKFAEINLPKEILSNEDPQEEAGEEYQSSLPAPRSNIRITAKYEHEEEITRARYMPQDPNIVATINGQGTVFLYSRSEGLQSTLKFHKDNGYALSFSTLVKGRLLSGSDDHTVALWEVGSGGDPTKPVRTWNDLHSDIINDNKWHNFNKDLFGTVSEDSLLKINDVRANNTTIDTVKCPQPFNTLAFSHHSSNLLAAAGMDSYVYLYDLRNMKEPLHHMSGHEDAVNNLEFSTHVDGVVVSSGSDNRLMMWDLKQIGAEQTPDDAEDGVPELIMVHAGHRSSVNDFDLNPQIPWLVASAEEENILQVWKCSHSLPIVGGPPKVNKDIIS

B1: Yeast Hat1p (1-320) (enzyme)
chain: MSANDFKPETWTSSANEALRVSIVGENAVQFSPLFTYPIYGDSEKIYGYKDLIIHLAFDSVTFKPYVNVKYSAKLGDDNIVDVEKKLLSFLPKDDVIVRDEAKWVDCFAEERKTHNLSDVFEKVSEYSLNGEEFVVYKSSLVDDFARRMHRRVQIFSLLFIEAANYIDETDPSWQIYWLLNKKTKELIGFVTTYKYWHYLGAKSFDEDIDKKFRAKISQFLIFPPYQNKGHGSCLYEAIIQSWLEDKSITEITVEDPNEAFDDLRDRNDIQRLRKLGYDAVFQKHSDLSDEFLESSRKSLKLEERQFNRLVEMLLLLNNS
B2: Hat1p A163Y (enzyme)
chain: B1 chain with A163Y
B3: Hat1p A202D (enzyme)
chain: B1 chain with A202D
B4: Hat1p Y37A (enzyme)
chain: B1 chain with Y37A
B5: Hat1p Y194A (enzyme)
chain: B1 chain with Y194A
B6: Hat1p Y196A (enzyme)
chain: B1 chain with Y196A

Legend:
[1] = target: T1, Yeast Hat2p (full length) with …; experiment: pull-down
[2] = target: T1, Yeast Hat2p (full length) with …; experiment: crystal structure

Row | Binder | binding result [1] | binding result [2]
1 | B1 | binds | –
2 | B2 | binds | –
3 | B3 | binds | –
4 | B4 | binds | –
5 | B5 | binds | –
6 | B6 | binds | –
7 | ARTKQTARKSTGGKA [H3 peptide (residues 1-15), unmodified] | – | binds
